Assay results taken from patent US8492329B2, “Bioactive peptides and methods of using same” (Compugen Ltd., priority 2007, dated 2013).
“Also recorded” adds a separate entry of the source. No end group written: not given here.

Columns and labels:
Format in all cases: cell-based
LGR4 = molecular target: T1, LGR4 (Homo sapiens, UniProt Q9BXB1); assay: cAMP accumulation in CHO-K1 cells transiently transfected with LGR4; conditions: 1 uM, pre-treatment with Forskolin, FIG. 3C
T1 construct: expressed in transfected cells; host or cells: CHO-K1 (transient)
Method: [The procedure below names another target; the source says it served here with some conditions changed.] (§1) LGR7 (RXFP1) or LGR8 (RXFP2) were transiently transfected into CHO-K1 cells as follows: Cells (12 million) were plated into T75 flasks on the day preceding transfection. Cells were transfected with a GPCR DNA and Gα16 using a lipid technique according to the manufacturer's recommendation. Cells were transfected for 5 hours, then re-plated into 96-well dishes (60,000 cells per well) and grown overnight. Transfected cells were plated into 24 wells of a 96-well plate. Cells were pre-treated with 0.5 mM IBMX (stimulation buffer) for 10 min at 37° C., then stimulated with either a positive control (Relaxin 2) or a candidate peptide (for Gs functional examination), followed by stimulation or a preincubation with 10 μM forskolin (for Gi functional examination). Following a 20 minutes stimulation by incubation with 1 μM of either positive control or the tested peptides, either with or without forskolin, intracellular cAMP was assayed using the Hit Hunter cAMP kit (DiscoveRx Corporation) according to the manufacturer's recommended protocol. Data was converted to nmol of cAMP by running a standard cAMP curve.

GPR135 (RXFP3) = molecular target: T2, GPR135 (RXFP3) (Homo sapiens, UniProt Q9NSD7); assay: cAMP HTRF assay on Euroscreen RXFP3 recombinant cells; conditions: increasing concentrations, 30 min; FIG. 5
T2 construct: host or cells: CHO-K1 recombinant cell line (Euroscreen)
T2 sequence (Q9NSD7 1-469): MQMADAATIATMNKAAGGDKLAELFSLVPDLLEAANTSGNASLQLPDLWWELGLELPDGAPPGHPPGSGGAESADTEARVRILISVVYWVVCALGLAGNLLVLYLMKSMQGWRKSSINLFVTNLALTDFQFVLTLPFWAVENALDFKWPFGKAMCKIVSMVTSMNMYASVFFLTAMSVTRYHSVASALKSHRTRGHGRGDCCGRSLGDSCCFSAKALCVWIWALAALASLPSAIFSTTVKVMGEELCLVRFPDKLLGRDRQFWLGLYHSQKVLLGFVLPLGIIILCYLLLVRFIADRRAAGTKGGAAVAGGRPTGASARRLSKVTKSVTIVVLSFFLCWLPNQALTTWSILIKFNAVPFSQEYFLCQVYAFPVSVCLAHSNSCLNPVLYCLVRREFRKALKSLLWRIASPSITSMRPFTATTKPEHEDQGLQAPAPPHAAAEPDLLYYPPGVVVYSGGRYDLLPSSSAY
Method: The ability of P59C13V (SEQ ID NO: 6) and H3 Relaxin to activate CHO-K1 cells transfected by GPR135 (RXFP3), which is a non-LGR, Relaxin related receptor, was tested. The assay was performed by Euroscreen. For cAMP concentration analysis, Euroscreen cat. ES-656-A-cells (RXFP3, Euroscreen cat. ES-656-A) grown to mid-log phase in culture media without antibiotics were detached with PBS-EDTA, centrifuged and resuspended in assay buffer at a concentration of […]. The test was performed in 96 well plates. For agonist testing, 12 μl of cells (5×10^3 cells/well) were mixed with 12 μl of agonist Either H3-Relaxin or P59C13V (P59) (SEQ ID NO: 6) at increasing concentrations. The plates were then incubated for 30 min at room temperature. After addition of the lysis buffer, cAMP concentrations were estimated, according to the manufacturer specification, with the HTRF kit from Cis-Bio International (cat no 62AM2PEB).
.Relaxin 3 Fit (Eeuroscreen) was used as a positive control. RXFP3 (GPCR135) transfected cells were challenged with increasing concentrations of Relaxin 3 (H3 Relaxin—as a positive control—[…]) or P59C13V (P59) (SEQ ID NO: 6) (1 nM-3 uM).

LGR6 = molecular target: T3, LGR6 (Homo sapiens, UniProt Q9HBX8); assay: cAMP accumulation in CHO-K1 cells transiently transfected with LGR6; conditions: 1 uM, without Forskolin, FIG. 3A
T3 construct: expressed in transfected cells; host or cells: CHO-K1 (transient)
T3 sequence (Q9HBX8 25-967): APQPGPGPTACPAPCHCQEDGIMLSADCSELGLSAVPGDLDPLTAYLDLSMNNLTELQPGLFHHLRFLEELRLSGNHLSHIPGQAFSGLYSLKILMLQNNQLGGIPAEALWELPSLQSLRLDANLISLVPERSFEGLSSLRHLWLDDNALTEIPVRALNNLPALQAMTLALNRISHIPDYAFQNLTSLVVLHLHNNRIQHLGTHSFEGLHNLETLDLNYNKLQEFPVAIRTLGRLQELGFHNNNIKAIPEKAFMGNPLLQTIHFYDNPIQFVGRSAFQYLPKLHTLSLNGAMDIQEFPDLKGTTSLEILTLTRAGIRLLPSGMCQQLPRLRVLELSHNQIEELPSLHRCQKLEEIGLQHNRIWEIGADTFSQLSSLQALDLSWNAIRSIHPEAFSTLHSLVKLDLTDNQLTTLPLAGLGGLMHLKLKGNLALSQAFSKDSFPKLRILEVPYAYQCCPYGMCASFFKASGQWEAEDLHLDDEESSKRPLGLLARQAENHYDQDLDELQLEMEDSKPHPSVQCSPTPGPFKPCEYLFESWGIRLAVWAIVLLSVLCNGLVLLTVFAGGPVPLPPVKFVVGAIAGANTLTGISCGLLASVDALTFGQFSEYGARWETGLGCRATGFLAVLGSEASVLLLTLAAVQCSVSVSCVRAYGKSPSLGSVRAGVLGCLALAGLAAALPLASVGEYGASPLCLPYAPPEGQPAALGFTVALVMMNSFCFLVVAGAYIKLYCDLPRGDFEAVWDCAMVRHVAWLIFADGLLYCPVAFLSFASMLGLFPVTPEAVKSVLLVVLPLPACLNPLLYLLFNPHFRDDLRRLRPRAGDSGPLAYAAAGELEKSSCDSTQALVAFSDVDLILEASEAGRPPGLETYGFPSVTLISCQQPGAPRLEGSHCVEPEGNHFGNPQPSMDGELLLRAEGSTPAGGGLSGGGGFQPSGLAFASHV
Method: [The procedure below names another target; the source says it served here with some conditions changed.] as §1

## GQKGQVGPPGAAVRRAYAAFSV [Peptide P59C13V]
LGR4
  Gi effect (decrease in cAMP accumulation): slight yet statistically significant Gi effect; also recorded: slight Gi activation
GPR135 (RXFP3)
  cAMP activation (Gs) of RXFP3: didn't show any cAMP activation (Gs)

## GQKGQVGPPGAAVRRAYAAFSVGRRAYAAFSV-OH [Peptide P74C13V]
LGR4
  Gi effect (decrease in cAMP accumulation): slight yet statistically significant Gi effect; also recorded: slight Gi activation
LGR6
  Gs activation (cAMP accumulation): significant increase in cAMP accumulation; also recorded: slight Gs activation
